The term Kd denotes the equilibrium constant for the complex coming apart.

What all share (assay): filter binding
The target in one series is T1, I-SceI K86R/G100S (Saccharomyces cerevisiae, UniProt P03882 1-235, K86R;G100S).
T1 sequence: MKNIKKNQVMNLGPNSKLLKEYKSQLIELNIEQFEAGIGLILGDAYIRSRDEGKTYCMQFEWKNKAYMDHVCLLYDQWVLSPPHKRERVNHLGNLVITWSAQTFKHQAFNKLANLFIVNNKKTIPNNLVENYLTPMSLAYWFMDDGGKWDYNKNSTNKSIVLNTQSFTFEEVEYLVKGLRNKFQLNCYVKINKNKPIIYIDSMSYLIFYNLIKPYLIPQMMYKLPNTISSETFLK

For another series, the target named is T2, I-SceI K86R/G100T (Saccharomyces cerevisiae, UniProt P03882 1-235, K86R;G100T).
T2 sequence: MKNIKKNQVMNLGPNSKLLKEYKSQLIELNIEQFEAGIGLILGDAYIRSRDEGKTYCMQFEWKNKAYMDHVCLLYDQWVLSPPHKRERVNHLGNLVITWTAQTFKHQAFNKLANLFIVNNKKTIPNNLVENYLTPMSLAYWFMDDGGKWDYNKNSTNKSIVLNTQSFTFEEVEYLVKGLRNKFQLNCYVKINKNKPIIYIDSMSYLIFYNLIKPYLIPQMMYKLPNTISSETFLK

A further series deals with T3, I-SceI K86R/G100C (Saccharomyces cerevisiae, UniProt P03882 1-235, K86R;G100C).
T3 sequence: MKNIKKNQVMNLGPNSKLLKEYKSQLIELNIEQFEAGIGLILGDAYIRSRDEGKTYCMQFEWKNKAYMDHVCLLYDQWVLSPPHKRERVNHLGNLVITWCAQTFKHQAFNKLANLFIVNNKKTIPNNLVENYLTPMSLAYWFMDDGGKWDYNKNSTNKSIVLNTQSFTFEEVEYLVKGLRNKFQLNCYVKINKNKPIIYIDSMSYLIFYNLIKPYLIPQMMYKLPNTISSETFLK

For a further series, the target named is T4, I-SceI G100C (Saccharomyces cerevisiae, UniProt P03882 1-235, G100C).
T4 sequence: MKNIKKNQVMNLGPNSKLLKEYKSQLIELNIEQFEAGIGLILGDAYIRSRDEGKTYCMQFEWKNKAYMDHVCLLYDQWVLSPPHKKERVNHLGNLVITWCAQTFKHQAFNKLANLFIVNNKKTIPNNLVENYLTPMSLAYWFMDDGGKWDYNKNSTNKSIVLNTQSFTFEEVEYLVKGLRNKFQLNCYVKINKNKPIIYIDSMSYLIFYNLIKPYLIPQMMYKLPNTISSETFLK

The next series concerns the target T5, I-SceI G100S (Saccharomyces cerevisiae, UniProt P03882 1-235, G100S).
T5 sequence: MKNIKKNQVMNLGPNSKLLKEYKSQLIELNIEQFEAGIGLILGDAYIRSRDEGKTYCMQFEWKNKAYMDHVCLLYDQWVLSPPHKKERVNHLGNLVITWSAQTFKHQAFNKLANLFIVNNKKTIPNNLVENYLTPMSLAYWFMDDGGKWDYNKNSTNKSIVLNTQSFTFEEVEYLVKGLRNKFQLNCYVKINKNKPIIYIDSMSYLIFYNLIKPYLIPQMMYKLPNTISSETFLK

The target in series [1] is T6, I-SceI wild type (K86/G100) (Saccharomyces cerevisiae, UniProt P03882 1-235).
T6 sequence: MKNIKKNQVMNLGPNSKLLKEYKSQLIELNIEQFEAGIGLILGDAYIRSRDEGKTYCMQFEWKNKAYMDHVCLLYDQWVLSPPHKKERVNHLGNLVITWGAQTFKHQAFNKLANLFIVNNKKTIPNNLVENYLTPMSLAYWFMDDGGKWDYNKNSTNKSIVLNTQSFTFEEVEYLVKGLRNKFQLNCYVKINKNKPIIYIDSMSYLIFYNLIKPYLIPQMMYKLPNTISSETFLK

The target in another series is T7, I-SceI G100T (Saccharomyces cerevisiae, UniProt P03882 1-235, G100T).
T7 sequence: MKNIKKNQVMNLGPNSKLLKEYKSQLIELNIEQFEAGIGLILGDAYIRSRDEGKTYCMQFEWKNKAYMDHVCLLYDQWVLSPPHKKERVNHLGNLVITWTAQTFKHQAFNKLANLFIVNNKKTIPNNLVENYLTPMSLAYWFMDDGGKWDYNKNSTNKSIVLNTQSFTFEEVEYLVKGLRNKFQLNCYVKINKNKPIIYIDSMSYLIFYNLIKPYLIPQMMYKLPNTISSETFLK

A further series addresses T8, I-SceI K86R (Saccharomyces cerevisiae, UniProt P03882 1-235, K86R).
T8 sequence: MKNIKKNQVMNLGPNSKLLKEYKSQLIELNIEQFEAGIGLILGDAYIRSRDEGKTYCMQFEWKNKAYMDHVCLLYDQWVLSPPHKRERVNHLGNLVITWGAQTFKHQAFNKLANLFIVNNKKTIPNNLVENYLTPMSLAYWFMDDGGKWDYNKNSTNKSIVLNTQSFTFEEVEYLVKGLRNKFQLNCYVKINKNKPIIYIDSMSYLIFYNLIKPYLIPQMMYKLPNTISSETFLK

In the next series the target is T9, I-SceI G100V (Saccharomyces cerevisiae, UniProt P03882 1-235, G100V).
T9 sequence: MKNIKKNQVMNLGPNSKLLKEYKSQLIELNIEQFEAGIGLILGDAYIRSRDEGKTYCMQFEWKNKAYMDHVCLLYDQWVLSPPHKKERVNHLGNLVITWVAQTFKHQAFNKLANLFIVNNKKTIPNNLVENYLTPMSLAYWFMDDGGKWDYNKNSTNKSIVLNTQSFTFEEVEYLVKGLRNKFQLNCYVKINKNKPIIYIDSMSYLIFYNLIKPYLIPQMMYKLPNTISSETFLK

B1: A/T+4 (WT) I-SceI target, filter binding duplex (dsDNA)
DNA 1: AACGAATAAAAGTTACGCTAGGGATAACAGGGTAATATAGCGAAAGAGTAGATATT
DNA 2: CAATATCTACTCTTTCGCTATATTACCCTGTTATCCCTAGCGTAACTTT
Consider B1, for which the Kd with I-SceI K86R/G100S came to 83 ± 27 nM; with I-SceI K86R/G100T, 96 ± 16 nM; in the series with I-SceI K86R/G100C it was 74 ± 12 nM; with I-SceI G100C it was 110 ± 30 nM; with I-SceI G100S, 150 ± 26 nM; in [1], 9 ± 3 nM. Also, the equilibrium dissociation constant (Kd) with I-SceI G100T turned out to be 39 ± 13 nM; in the series with I-SceI K86R it was 35 ± 5 nM; in the series with I-SceI G100V, 240 ± 51 nM.

B2: C/G+4 I-SceI target, filter binding duplex (dsDNA)
DNA 1: AACGAATAAAAGTTACGCTAGGGATAACCGGGTAATATAGCGAAAGAGTAGATATT
DNA 2: CAATATCTACTCTTTCGCTATATTACCCGGTTATCCCTAGCGTAACTTT
With B2, the equilibrium dissociation constant (Kd) was 23 ± 4.3 nM in the series with I-SceI K86R/G100S; 8.2 ± 0.86 nM with I-SceI K86R/G100T; 7.5 ± 2.3 nM with I-SceI K86R/G100C; 34 ± 8.8 nM with I-SceI G100C; 32 ± 10 nM in the series with I-SceI G100S; 20 ± 4.6 nM in series [1]. For the same molecule, the results for the Kd in the series with I-SceI G100T, with I-SceI K86R and in the series with I-SceI G100V were 10 ± 1.5 nM, 39 ± 10 nM and 230 ± 27 nM, respectively.

These data come from article PMC3019082.
